Results: patent US20230365709A1 (published 2023)
Where a chain is given by its changes, count along the chain named. Each block holds one binder with its values, some of them ahead of it.

Experiments:
[1] = molecular target: T1, recombinant human CD64 expressed on the surface of CHO cells (human, UniProt P12314 16-374); test: flow cytometry, CHO-huCD64 cells, apparent KD; SD 8.7
T1 construct: whole, on cells; also called huCD64
Procedure: (§1) The CHO cells were incubated with serial dilutions of the indicated trispecific constructs and control constructs at 37° C., and cell surface bound antibodies were detected by FITC-conjugated goat anti-human IgG Fc and flow cytometric analysis. Measured median fluorescence intensity values were used to calculate apparent affinities (KD) by non-linear regression.

[2] = molecular target: T2, recombinant human CD32A expressed on the surface of CHO cells (human, UniProt P12318 34-317); test: flow cytometry, CHO-huCD32A cells, apparent KD; SD 118.9
T2 construct: whole, on cells; also called huCD32A
T2 sequence (looked up): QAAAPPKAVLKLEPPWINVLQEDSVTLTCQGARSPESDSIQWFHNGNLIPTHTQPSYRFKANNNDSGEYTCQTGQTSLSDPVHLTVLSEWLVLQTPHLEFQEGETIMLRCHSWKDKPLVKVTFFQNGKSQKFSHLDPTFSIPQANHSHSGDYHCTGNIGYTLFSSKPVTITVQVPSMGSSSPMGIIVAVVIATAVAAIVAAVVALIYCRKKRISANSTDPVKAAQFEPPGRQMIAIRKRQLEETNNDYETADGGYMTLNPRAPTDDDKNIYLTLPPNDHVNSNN
Procedure: as §1

[3] = molecular target: T1, recombinant human CD64 expressed on the …; test: flow cytometry, CHO-huCD64 cells, apparent KD; SD 3.4
Procedure: as §1

[4] = molecular target: T2, recombinant human CD32A expressed on …; test: flow cytometry, CHO-huCD32A cells, apparent KD; SD 236.8
Procedure: as §1

[5] = molecular target: T1, recombinant human CD64 expressed on the …; test: flow cytometry, CHO-huCD64 cells, apparent KD; SD 7.0
Procedure: as §1

[6] = molecular target: T3, recombinant human NKp46 expressed on the surface of CHO cells (human, UniProt O76036 22-304); test: flow cytometry, CHO-huNKp46 cells, apparent KD; SD 6.2
T3 construct: whole, on cells; also called huNKp46; CD355
Procedure: as §1

[7] = molecular target: T2, recombinant human CD32A expressed on …; test: flow cytometry, CHO-huCD32A cells, apparent KD; SD n.a.
Procedure: as §1

[8] = molecular target: T1, recombinant human CD64 expressed on the …; test: flow cytometry, receptor-expressing CHO cells
Procedure: as §1

[9] = molecular target: T1, recombinant human CD64 expressed on the …; test: flow cytometry, CHO-huCD64 cells, apparent KD; SD 13.7
Procedure: as §1

[10] = molecular target: T2, recombinant human CD32A expressed on …; test: flow cytometry, CHO-huCD32A cells, apparent KD; SD 719.6
Procedure: as §1

T1 sequence (P12314 16-374): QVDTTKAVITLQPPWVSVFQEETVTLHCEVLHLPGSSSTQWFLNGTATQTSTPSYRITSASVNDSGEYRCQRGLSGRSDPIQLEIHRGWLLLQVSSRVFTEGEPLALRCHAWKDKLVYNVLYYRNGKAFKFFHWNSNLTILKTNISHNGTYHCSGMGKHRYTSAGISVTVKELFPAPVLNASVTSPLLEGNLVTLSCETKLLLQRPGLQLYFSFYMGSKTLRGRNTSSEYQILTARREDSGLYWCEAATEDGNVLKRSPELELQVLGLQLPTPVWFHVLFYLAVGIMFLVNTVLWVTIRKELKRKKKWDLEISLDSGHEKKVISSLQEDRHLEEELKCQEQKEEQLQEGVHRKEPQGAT
T3 sequence (O76036 22-304): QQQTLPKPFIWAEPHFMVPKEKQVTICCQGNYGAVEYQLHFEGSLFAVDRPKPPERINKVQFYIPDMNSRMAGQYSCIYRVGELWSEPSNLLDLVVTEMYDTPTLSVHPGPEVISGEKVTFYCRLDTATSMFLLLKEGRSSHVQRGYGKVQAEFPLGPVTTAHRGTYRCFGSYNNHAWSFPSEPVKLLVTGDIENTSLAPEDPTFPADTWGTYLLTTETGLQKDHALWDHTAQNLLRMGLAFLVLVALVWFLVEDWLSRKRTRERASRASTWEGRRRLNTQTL

B1: 1Fab-AFc-1Fab-1 (bispecific antibody, human IgG1, kappa)
chain 1: not shown
chain 2: EVQLVESGGGLVKPGGSLKLSCAASGYTFTSYVMHWVRQAPGKGLEWIGYINPYNDGTKYNEKFQGRVTISSDKSISTAYMELSSLRSEDTAMYYCARGTYYYGTRVFDYWGQGTLVTVSSASTKGPSVFPLAPSSKSTSGGTAALGCLVKDYFPEPVTVSWNSGALTSGVHTFPAVLQSSGLYSLSSVVTVPSSSLGTQTYICNVNHKPSNTKVDKKVEPKSCDKTHTCPPCPAPELLGGPSVFLFPPKPKDTLMISRTPEVTCVVVDVSHEDPEVKFNWYVDGVEVHNAKTKPREEQYNSTYRVVSVLTVLHQDWLNGKEYKCKVSNKALPAPIEKTISKAKGQPREPQVYTLPPSREEMTKNQVSLSCAVKGFYPSDIAVEWESNGQPENNYKTTPPVLDSDGSFFLVSKLTVDKSRWQQGNVFSCSVMHEALHNHYTQKSLSLSPGSTGSQVQLQQSGPELVKPGASVKMSCKASGYTFTDYVINWGKQRSGQGLEWIGEIYPGSGTNYYNEKFKAKATLTADKSSNIAYMQLSSLTSEDSAVYFCARRGRYGLYAMDYWGQGTSVTVSSRTVAAPSVFIFPPSDEQLKSGTASVVCLLNNFYPREAKVQWKVDNALQSGNSQESVTEQDSKDSTYSLSSTLTLSKADYEKHKVYACEVTHQGLSSPVTKSFNRGEC
chain 3: DIQMTQTTSSLSASLGDRVTISCRASQDISNYLNWYQQKPDGTVKLLIYYTSRLHSGVPSRFSGSGSGTDYSLTINNLEQEDIATYFCQQGNTRPWTFGGGTKLEIKASTKGPSVFPLAPSSKSTSGGTAALGCLVKDYFPEPVTVSWNSGALTSGVHTFPAVLQSSGLYSLSSVVTVPSSSLGTQTYICNVNHKPSNTKVDKKVEPKSCDKTH
notes: CD19, wt Fc, NKp46(NKp46-1); also called ComparatorA_1
Kd [1]: 22.7 nM
Kd [2]: 286 nM

B2: 1Fab-AFc-1Fab-5 (bispecific antibody, human IgG1, kappa)
chain 1: DIVMTQSPATLSLSPGERATLSCRSSKSLQNVNGNTYLYWFQQKPGQSPQLLIYRMSNLNSGVPDRFSGSGSGTEFTLTISSLEPEDFAVYYCMQHLEYPITFGAGTKLEIKRTVAAPSVFIFPPSDEQLKSGTASVVCLLNNFYPREAKVQWKVDNALQSGNSQESVTEQDSKDSTYSLSSTLTLSKADYEKHKVYACEVTHQGLSSPVTKSFNRGECDKTHTCPPCPAPELLGGPDVFLFPPKPKDTLMISRTPEVTCVVVDVSHEDPEVKFNWYVDGVEVHNAKTKPREEQYNSTYRVVSVLTVLHQDWLNGKEYKCKVSNKALPAPEEKTISKAKGQPREPQVYTLPPSREEMTKNQVSLWCLVKGFYPSDIAVEWESNGQPENNYKTTPPVLDSDGSFFLYSKLTVDKSRWQQGNVFSCSVMHEALHNHYTQKSLSLSPGK
chain 2: B1 chain 2 with S243D, I336E
chain 3: B1 chain 3
notes: CD19, Fc-enhanced Fc, NKp46(NKp46-1); also called ComparatorA_5
Kd [3]: 15.9 nM
Kd [4]: 1050 nM

B3: 1Fab-AFc-1Fab-2 (bispecific antibody, human IgG1, kappa)
chain 1: not shown
chain 2: EVQLVESGGGLVKPGGSLKLSCAASGYTFTSYVMHWVRQAPGKGLEWIGYINPYNDGTKYNEKFQGRVTISSDKSISTAYMELSSLRSEDTAMYYCARGTYYYGTRVFDYWGQGTLVTVSSASTKGPSVFPLAPSSKSTSGGTAALGCLVKDYFPEPVTVSWNSGALTSGVHTFPAVLQSSGLYSLSSVVTVPSSSLGTQTYICNVNHKPSNTKVDKKVEPKSCDKTHTCPPCPAPELLGGPSVFLFPPKPKDTLMISRTPEVTCVVVDVSHEDPEVKFNWYVDGVEVHNAKTKPREEQYNSTYRVVSVLTVLHQDWLNGKEYKCKVSNKALPAPIEKTISKAKGQPREPQVYTLPPSREEMTKNQVSLSCAVKGFYPSDIAVEWESNGQPENNYKTTPPVLDSDGSFFLVSKLTVDKSRWQQGNVFSCSVMHEALHNHYTQKSLSLSPGSTGSEVQLQQSGPELVKPGASVKISCKTSGYTFTEYTMHWVKQSHGKSLEWIGGISPNIGGTSYNQKFKGKATLTVDKSSSTAYMELRSLTSEDSAVYYCARRGGSFDYWGQGTTLTVSSRTVAAPSVFIFPPSDEQLKSGTASVVCLLNNFYPREAKVQWKVDNALQSGNSQESVTEQDSKDSTYSLSSTLTLSKADYEKHKVYACEVTHQGLSSPVTKSFNRGEC
chain 3: DIVMTQSPATLSVTPGDRVSLSCRASQSISDYLHWYQQKSHESPRLLIKYASQSISGIPSRFSGSGSGSDFTLSINSVEPEDVGVYYCQNGHSFPLTFGAGTKLELKASTKGPSVFPLAPSSKSTSGGTAALGCLVKDYFPEPVTVSWNSGALTSGVHTFPAVLQSSGLYSLSSVVTVPSSSLGTQTYICNVNHKPSNTKVDKKVEPKSCDKTH
notes: CD19, wt Fc, NKp46(NKp46-3); also called ComparatorA_2
Kd [5]: 23.9 nM
Kd [6]: 48 nM
Kd [7]: 1150 nM

B5: IG-scDb-1 (other)
heavy: EVQLVESGGGLVKPGGSLKLSCAASGYTFTSYVMHWVRQAPGKGLEWIGYINPYNDGTKYNEKFQGRVTISSDKSISTAYMELSSLRSEDTAMYYCARGTYYYGTRVFDYWGQGTLVTVSSASTKGPSVFPLAPSSKSTSGGTAALGCLVKDYFPEPVTVSWNSGALTSGVHTFPAVLQSSGLYSLSSVVTVPSSSLGTQTYICNVNHKPSNTKVDKKVEPKSCDKTHTCPPCPAPEFEGGPSVFLFPPKPKDTLMISRTPEVTCVVVAVSHEDPEVKFNWYVDGVEVHNAKTKPREEQYGSTYRVVSVLTVLHQDWLNGKEYKCKVSNKALPAPIEKTISKAKGQPREPQVYTLPPSREEMTKNQVSLTCLVKGFYPSDIAVEWESNGQPENNYKTTPPVLDSDGSFFLYSKLTVDKSRWQQGNVFSCSVMHEALHNHYTQKSLSLSPGGGGGSGGGGSSYELTQPLSVSVALGQTARITCGGHNIGSKNVHWYQQKPGQAPVLVIYQDNKRPSGIPERFSGSNSGNTATLTISRAQAGDEADYYCQVWDNYNVLFGCGTKLTVLGGSGGSQVQLVESGGGLVKPGGSLRLSCAASGFTFSSYGMHWVRQAPGKGLEWVAFIRYDGSNKYYADSVKGRFTISRDNSKNTLYLQMNSLRAEDTAVYYCAKDRGLGDGTYFDYWGQGTTVTVSSGGSGGSGGSGGSGGSGGSQSALTQPASVSGSPGQSITISCSGSSSNIGNNAVNWYQQLPGKAPKLLIYYDDLLPSGVSDRFSGSKSGTSAFLAISGLQSEDEADYYCAAWDDSLNGPVFGGGTKLTVLGGSGGSQVQLVQSGAEVKKPGASVKVSCKASGYTFTSYYMHWVRQAPGQCLEWMGAIEPTYGSTSYAQKFQGRVTMTRDTSTSTVYMELSSLRSEDTAVYYCARGSAYYYDFADYWGQGTLVTVSS
light: DIVMTQSPATLSLSPGERATLSCRSSKSLQNVNGNTYLYWFQQKPGQSPQLLIYRMSNLNSGVPDRFSGSGSGTEFTLTISSLEPEDFAVYYCMQHLEYPITFGAGTKLEIKRTVAAPSVFIFPPSDEQLKSGTASVVCLLNNFYPREAKVQWKVDNALQSGNSQESVTEQDSKDSTYSLSSTLTLSKADYEKHKVYACEVTHQGLSSPVTKSFNRGEC
notes: trispecific construct: target CD19, effector domains CD16A(P2C47var50) and NKG2D(KYK-2.0)
Kd [7]: 4090 nM

B6: 2Fab-1scFv-AFc-3 (bispecific antibody, human IgG1, kappa)
heavy: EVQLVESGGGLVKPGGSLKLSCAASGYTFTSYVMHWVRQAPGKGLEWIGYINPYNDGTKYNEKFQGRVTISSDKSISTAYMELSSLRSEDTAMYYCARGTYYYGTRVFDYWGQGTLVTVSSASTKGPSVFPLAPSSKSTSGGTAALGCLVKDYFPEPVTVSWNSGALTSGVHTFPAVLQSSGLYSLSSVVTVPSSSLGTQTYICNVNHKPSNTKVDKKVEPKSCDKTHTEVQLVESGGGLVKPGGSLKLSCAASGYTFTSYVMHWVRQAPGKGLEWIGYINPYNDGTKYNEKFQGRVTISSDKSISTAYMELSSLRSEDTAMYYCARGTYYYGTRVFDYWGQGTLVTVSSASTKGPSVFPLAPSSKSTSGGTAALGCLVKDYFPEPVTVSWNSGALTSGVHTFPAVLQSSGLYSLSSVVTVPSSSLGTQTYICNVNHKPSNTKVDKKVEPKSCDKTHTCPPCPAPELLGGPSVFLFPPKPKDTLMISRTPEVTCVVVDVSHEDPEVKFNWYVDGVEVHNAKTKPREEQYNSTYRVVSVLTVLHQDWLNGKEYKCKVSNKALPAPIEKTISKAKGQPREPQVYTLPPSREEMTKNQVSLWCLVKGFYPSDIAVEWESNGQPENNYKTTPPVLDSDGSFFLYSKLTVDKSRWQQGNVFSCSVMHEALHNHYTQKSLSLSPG
light: B5 light
chain: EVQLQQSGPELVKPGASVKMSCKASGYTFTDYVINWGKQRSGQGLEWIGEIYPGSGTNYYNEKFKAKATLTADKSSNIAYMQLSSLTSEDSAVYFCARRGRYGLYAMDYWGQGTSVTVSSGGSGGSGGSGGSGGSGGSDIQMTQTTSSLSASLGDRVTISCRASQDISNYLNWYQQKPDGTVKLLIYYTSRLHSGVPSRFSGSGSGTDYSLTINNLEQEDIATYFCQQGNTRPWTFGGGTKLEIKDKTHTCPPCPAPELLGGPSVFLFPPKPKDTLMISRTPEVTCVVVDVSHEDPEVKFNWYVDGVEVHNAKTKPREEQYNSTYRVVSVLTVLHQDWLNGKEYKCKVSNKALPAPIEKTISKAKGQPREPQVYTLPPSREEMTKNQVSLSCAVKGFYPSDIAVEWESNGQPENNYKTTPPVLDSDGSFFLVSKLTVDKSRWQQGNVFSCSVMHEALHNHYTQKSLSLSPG
notes: CD19, wt Fc, NKp46(NKp46-1)
Kd [9]: 38.1 nM
Kd [10]: 682 nM

Now from value to binder:

binding result [8]: binds
B4: 2Fab-1scFv-AFc-1 (bispecific antibody, human IgG1, kappa)
heavy: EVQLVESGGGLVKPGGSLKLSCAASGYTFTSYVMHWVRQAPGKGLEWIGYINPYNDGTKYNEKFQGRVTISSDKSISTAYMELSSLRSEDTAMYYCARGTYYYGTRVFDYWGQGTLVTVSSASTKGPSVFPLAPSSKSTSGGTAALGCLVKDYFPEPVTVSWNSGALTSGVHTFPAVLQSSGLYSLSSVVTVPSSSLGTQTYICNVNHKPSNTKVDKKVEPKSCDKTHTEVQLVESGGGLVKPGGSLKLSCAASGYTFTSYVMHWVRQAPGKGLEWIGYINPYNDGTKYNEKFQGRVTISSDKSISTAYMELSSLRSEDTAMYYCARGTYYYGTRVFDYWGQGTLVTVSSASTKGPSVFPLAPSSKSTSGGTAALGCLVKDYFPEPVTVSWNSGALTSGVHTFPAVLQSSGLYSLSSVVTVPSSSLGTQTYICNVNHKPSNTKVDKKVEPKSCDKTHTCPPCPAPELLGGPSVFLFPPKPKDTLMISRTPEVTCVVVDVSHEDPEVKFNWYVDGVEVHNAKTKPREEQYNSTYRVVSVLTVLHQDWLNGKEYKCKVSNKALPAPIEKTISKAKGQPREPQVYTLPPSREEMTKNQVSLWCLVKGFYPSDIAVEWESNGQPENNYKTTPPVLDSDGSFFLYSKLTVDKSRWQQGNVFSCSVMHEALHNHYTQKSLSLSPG
light: B5 light
chain: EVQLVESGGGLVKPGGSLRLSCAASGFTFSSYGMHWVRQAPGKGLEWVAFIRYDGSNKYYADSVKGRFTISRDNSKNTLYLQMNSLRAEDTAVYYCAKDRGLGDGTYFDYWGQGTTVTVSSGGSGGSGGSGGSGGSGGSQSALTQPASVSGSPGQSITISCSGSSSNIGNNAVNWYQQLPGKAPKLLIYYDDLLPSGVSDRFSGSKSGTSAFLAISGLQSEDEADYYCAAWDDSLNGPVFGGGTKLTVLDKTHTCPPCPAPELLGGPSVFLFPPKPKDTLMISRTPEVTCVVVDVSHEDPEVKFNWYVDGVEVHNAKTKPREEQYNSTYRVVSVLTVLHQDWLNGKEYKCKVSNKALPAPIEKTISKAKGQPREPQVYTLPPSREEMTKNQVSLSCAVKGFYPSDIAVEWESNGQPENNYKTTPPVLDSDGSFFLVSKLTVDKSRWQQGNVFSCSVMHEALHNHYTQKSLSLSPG
notes: CD19, wt Fc, NKG2D(KYK-2.0)

binding result [8]: binds
B7: 2Fab-1scFv-AFc-4 (bispecific antibody, human IgG1, kappa)
heavy: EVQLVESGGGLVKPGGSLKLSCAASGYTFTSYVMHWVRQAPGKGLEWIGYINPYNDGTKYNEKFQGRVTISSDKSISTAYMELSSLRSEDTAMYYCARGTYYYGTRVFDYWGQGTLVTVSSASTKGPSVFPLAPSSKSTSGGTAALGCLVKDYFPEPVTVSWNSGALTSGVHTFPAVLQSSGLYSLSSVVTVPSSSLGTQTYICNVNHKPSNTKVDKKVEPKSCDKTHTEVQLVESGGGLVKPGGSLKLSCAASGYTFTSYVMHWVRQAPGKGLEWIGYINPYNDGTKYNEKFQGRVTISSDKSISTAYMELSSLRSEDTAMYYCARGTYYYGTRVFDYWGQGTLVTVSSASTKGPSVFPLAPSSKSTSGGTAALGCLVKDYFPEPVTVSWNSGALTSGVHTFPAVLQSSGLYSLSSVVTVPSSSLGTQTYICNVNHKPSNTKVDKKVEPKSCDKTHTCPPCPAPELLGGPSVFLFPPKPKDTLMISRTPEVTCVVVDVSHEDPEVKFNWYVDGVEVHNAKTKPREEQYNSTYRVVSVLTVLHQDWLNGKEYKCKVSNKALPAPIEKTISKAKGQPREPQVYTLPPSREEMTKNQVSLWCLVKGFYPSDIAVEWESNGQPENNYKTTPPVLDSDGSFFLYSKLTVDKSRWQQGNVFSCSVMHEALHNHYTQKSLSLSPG
light: B5 light
chain: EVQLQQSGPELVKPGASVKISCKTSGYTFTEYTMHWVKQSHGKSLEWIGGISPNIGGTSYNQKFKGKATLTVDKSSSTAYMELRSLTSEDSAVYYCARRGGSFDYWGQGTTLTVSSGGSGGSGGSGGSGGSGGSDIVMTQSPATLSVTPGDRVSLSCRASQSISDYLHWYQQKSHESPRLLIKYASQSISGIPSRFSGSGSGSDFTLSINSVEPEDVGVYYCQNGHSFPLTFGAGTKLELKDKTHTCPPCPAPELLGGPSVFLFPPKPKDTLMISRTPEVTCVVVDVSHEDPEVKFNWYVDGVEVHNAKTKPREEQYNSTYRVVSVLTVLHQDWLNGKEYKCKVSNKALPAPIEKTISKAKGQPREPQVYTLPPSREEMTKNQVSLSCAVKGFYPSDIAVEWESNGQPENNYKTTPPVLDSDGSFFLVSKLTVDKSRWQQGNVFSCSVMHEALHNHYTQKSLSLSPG
notes: CD19, wt Fc, NKp46(NKp46-3)

binding result [8]: binds
B8: 2Fab-1scFv-AFc-2 (bispecific antibody, human IgG1, kappa)
heavy: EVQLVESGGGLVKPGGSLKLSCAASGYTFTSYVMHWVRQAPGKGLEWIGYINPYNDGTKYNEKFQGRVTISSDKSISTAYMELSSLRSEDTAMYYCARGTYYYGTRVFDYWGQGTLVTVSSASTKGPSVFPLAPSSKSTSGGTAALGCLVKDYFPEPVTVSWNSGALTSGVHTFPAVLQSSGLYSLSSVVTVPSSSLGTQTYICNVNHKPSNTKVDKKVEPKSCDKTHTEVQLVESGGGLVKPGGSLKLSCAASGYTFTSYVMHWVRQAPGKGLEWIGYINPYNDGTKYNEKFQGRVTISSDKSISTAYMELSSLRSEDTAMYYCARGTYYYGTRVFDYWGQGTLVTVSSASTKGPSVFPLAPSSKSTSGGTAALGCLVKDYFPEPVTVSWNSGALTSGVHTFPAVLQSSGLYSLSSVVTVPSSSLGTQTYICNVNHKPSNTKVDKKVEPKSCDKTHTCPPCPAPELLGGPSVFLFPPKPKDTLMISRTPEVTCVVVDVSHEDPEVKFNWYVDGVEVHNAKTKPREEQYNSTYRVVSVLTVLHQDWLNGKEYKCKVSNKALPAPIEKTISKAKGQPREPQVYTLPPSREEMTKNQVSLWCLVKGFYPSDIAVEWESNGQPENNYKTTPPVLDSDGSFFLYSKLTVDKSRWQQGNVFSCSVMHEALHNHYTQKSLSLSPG
light: B5 light
chain: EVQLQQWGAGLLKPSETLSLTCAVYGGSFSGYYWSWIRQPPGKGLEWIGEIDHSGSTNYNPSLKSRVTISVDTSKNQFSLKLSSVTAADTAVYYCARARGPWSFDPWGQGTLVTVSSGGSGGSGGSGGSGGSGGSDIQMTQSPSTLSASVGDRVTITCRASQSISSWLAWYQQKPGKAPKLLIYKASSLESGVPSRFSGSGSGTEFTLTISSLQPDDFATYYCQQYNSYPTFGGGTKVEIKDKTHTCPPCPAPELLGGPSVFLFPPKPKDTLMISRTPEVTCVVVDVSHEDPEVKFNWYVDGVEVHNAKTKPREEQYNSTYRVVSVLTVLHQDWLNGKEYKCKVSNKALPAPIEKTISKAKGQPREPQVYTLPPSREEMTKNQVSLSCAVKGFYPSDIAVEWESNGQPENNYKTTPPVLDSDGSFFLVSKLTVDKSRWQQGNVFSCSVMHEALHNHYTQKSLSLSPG
notes: CD19, wt Fc, NKG2D(ADI-27743)
